Data: PMC9170038

Experiments:
[1] = tested on: Theophylline aptamer, RNA-MaP condition construct (RNA, aptamer) GGAAAGGCGAGGAUACCAGCGUUCGCGCCCUUGGCAGCCUCGCCAAAGAAACAACAACAACAAC; experiment: DMS chemical mapping; conditions: 80 mM KCl, 4 mM MgCl2; 100 mM Tris-HCl, pH 7.5, 37 °C
[2] = tested on: Theophylline aptamer, Light-up construct (RNA, aptamer) GGGAACGUCUCCGAGUAGGAGACGAAGGGAGAGUGGCAGCUUACAACCUGAAGGACGGGUCCCCAGUAAUAAUGAUACCAGGAACAAAAGUUCCCCUUGGCAGCAUCUGGGUUGAGUAGAGUGUGAGCAGGAAGUGGGCUGUUGCUUUUCCAAGCUUAUCGAGUAGAUAAGCAAAAAGAAACAACAACAACAAC; experiment: DMS chemical mapping; conditions: 5 mM MgCl2, 1x PBS, pH 6.1, 24 °C
[3] = target: T1, MS2 coat protein, dlFG mutant (Escherichia phage MS2, UniProt P03612, del68-81insG); experiment: 4 mM Mg2+; no ligand; RNA-MaP array; 100 mM Tris-HCl pH 7.5, 80 mM KCl, 4 mM MgCl2, 0.1 mg/mL BSA, 1 mM DTT, 0.01 mg/mL yeast tRNA, 0.01% Tween-20; protein 1.5 nM to 3 uM; 37 C (Table S3); conditions: chain copies: 2; label: tethered by stalled RNA polymerase
[4] = target: T1, MS2 coat protein, dlFG mutant; experiment: 4 mM Mg2+; FMN 200 uM; RNA-MaP array; 100 mM Tris-HCl pH 7.5, 80 mM KCl, 4 mM MgCl2, 0.1 mg/mL BSA, 1 mM DTT, 0.01 mg/mL yeast tRNA, 0.01% Tween-20; protein 1.5 nM to 3 uM; 37 C (Table S3); conditions: chain copies: 2; label: tethered by stalled RNA polymerase
[5] = target: T1, MS2 coat protein, dlFG mutant; experiment: 4 mM Mg2+; theophylline 2 mM; RNA-MaP array; 100 mM Tris-HCl pH 7.5, 80 mM KCl, 4 mM MgCl2, 0.1 mg/mL BSA, 1 mM DTT, 0.01 mg/mL yeast tRNA, 0.01% Tween-20; protein 1.5 nM to 3 uM; 37 C (Table S3); conditions: chain copies: 2; label: tethered by stalled RNA polymerase
[6] = target: T1, MS2 coat protein, dlFG mutant; experiment: 4 mM Mg2+; L-tryptophan 2.4 mM; RNA-MaP array; 100 mM Tris-HCl pH 7.5, 80 mM KCl, 4 mM MgCl2, 0.1 mg/mL BSA, 1 mM DTT, 0.01 mg/mL yeast tRNA, 0.01% Tween-20; protein 1.5 nM to 3 uM; 37 C (Table S3); conditions: chain copies: 2; label: tethered by stalled RNA polymerase
[7] = target: T1, MS2 coat protein, dlFG mutant; experiment: 4 mM Mg2+; miR-208a RNA 100 nM (AU…UUGU); RNA-MaP array; 100 mM Tris-HCl pH 7.5, 80 mM KCl, 4 mM MgCl2, 0.1 mg/mL BSA, 1 mM DTT, 0.01 mg/mL yeast tRNA, 0.01% Tween-20; protein 1.5 nM to 3 uM; 37 C (Table S3); conditions: chain copies: 2; label: tethered by stalled RNA polymerase

| Molecule | Kd [3] [nM] | also measured |
| --- | --- | --- |
| Cn1c(=O)c2[nH]cnc2n(C)c1=O |  | Kd [1]: 13.11 ± 9.21/-4.86 μM; Kd [2]: 239.54 ± 161.15/-96.27 μM |
| Eterna 6002686 (Brourd's mod of Exclusion 4) (ssRNA) RNA: UAACAAAUUGUCAGGAUAUCAGUCCCGGCCCAGAUUGAGAAGGGACAUGAGGAUCACCCAUGUAUGAUUCUCAG | 93.5 |  |
| Eterna 7681766 (Exclusion - Tryptophan A) (ssRNA) RNA: UGUGAACAAAAGUAGAGUGGACCACUAUAGCGAGGACCGGUACGGCCGCCACUCGUAUAUAAAUUCAGUGAUGUUGAAAAGAGCU | > 3000 |  |
| Eterna 6136258 (Same State NG 2) (ssRNA) RNA: UAAUCUCAGAUAGGAUAUAUAGGAUAACUUAAGACCUAACAUGAGGAUCACCCAUGUGAUUAUUCGUAGAAGGAUCAUUGACCC | 162 |  |
| Eterna 6457817 (Inverted Small Loop Same State NG 3) (ssRNA) RNA: GCGUAAUAGGUGUAGCUAGUCGUUCAAGAAGGGUGAAGAACAUGAGGAUCACCCAUGUGGUCUAUACAGGAUAUUGAUAUACGC | 607 |  |
| Eterna 6063666 (Exclusion 4) (ssRNA) RNA: UAUGUGUCAGGAUAUUGUUAAUUUAGUUGUUUGUAUUAGUUCGAGAAGGGACAUGAGGAUCACCCAUGUUGUUU |  | Kd [4]: 31.1 nM |
| Eterna 5956827 (Exclusion NG 2) (ssRNA) RNA: UUUGUUUUGCAAGGAUAUGUUUAAUUUUAGUUUCCUUACACAUGAGGAUCACCCAUGUUAUACUUACAGAAGGUGCGUAAUUUU |  | Kd [4]: 94 nM |
| Eterna 7623315 (Exclusion - Theophylline A) (ssRNA) RNA: AUUAUCAUGGUCAUAUAUAUUUCGUCAGAUACCAGACUAGAUAUAGUCCCUUGGCAGCUGUUACAUGAGGAUCACCCAUGUUAUA |  | Kd [5]: 45.8 nM |
| Eterna 7612216 (Same State - Tryptophan B) (ssRNA) RNA: GCUAGGUCAUCGGCCGCCACUAACGACGGUUCCAACAUGAGGAUCACCCAUGUGCCACAUGCGCAUAGGACCGGGAUGACCUAGC |  | Kd [6]: 21 nM |
| Eterna 7733368 (Same State - Tryptophan B) (ssRNA) RNA: GGGUACAUCGCGGCCGCCACUUAUGUAAAUACAUGAGGAUCACCCAUGUCGAUGGAGACAUCGGUAAGGACCGGGUGAUGUACCG |  | Kd [6]: 19.3 nM |
| Eterna 11920 (Sensor v3, turn-off variant 2) (ssRNA) RNA: UUUAAACUUACAAUCUUCGCUGGCAUGCUUGUGCCAGCUACAUGAGGAUCACCCAUGUUUUUUGCUCGUCUUAUUCU |  | Kd [7]: 95 nM |
| Eterna 13224 (Sensor for hsa-mir-208a) (ssRNA) RNA: ACCCAAAGUAUAUGGGAACAAGCUUUUUAACAUGAGGAUCACCCAUGUGCUCGUCUUAUAAGCAGUCGAAAGACUGC |  | Kd [7]: 17.1 nM |
| Eterna 7730944 (Same State - Tryptophan A) (ssRNA) RNA: UAAAACGCUUGAAUAACAAGCGAAAAUUCGCGAGGACCGGUACGGCCGCCACUCGCUAACUGCGAGUGAUGUUCGAUAAUAAAAU | > 3000 |  |
| Eterna 7691696 (Same State - Theophylline B) (ssRNA) RNA: UGUCAUUGGUCUGAUACCAGAAGAUAAUCUGGAGUGAUGUUCCAAGUACGACAAAGUCGCUUCCCUUGGCAGCAGACCGAUGACU | > 3000 |  |
| Eterna 7727988 (Exclusion - Theophylline B) (ssRNA) RNA: GGGAACUCUUACGAUACCAGCCGGAGUGAUGUUCCGCGCUUGGACGUAGUAACCCGCACCGGCCCUUGGCAGCGUGGAUCUUAUA | > 3000 |  |
| Eterna 7747481 (Same State - Arginine B) (ssRNA) RNA: GCCGUAGAUUGAAGGAGCGACAUAAACGAUGUUCUGGUAGUGAUGUUACCUUAGCAGGCAUGUCAGGUAGGUCGCAAUCUACGGC | > 3000 |  |
| Eterna 7724662 (Same State - FMN B) (ssRNA) RNA: GUAUCGCUAGGAGGAUAUUUCAAAUAACAAAUAAAUGGUUAUACGGAGUGAUGUUCCGAUUUACGGAAAGAAGGCCUAGUGAUAC | > 3000 |  |
| Eterna 1282 (Exclusion - Tryptophan B) (ssRNA) RNA: GGAUUGCGUUCGGCCGCCACUAGACUACAUUCCACGCCCGACCCGUUUUUAAGUGAUGUUUAAACUAGGACCGGGAACCGAUUUC | > 3000 |  |
| Eterna 7672552 (Same State - Tryptophan A) (ssRNA) RNA: UAAGAAUAAGUAGCAGUGAUGUUGCUACUACGAGGACCGGUACGGCCGCCACUCGAGUCCUCGAAACAUCACUGAACGAGGAAUA | > 3000 |  |
| Eterna 7684249 (Exclusion - Tryptophan B) (ssRNA) RNA: UUUAUAAUGUCGGCCGCCACUGGAUUAAUAUUUGUAUAAUCUAGUUCUGAGUGAUGUUUAGAGUCCAGGACCGGGACAUUUGUUA | > 3000 |  |
